Laboratory results taken from US11951175B2, “Bioconjugates containing sulfamide linkers for use in treatment” (priority 2016, dated 2024).

Columns and labels:
[1] = Rat safety study with cAC10 ADCs 115, 116 and Adcetris; format: in vivo, Wistar rats; settings: as in legend of FIG. 19a-c: 115/116 at 40, 60, 70 or 80 mg/kg, Adcetris at 15, 20 or 40 mg/kg, mean body weight
Method: […] The test items were administered via intravenous (bolus) injection using a microflex infusion set introduced into a tail vein (2 mL/kg at 1 mL/min). One group of animals was treated with vehicle (control). After dosing, all animals were maintained for a 12-day observation period. Surviving animals were euthanized on day 12. Each animal was weighed at the time of randomization/selection, prior to dosing (day 0) and on all subsequent days up to day 12. Any individual animal with a single observation of >30% body weight loss or three consecutive measurements of >25% body weight loss was euthanized. All animals (including any found dead or killed moribund) were submitted to full necropsy procedures. Histopathological examinations of the liver, spleen and sciatic nerve was performed for all animals. Blood samples (including for animals killed moribund) were collected and subjected to determination of both haematological as well as serum clinical chemistry parameters.

[2] = reported value for Adcetris; cited from earlier work
Trastuzumab = assay: Trimming of trastuzumab glycans by EndoSH; format: biochemical; settings: 0.1 w/w % EndoSH, 37° C., after 1 hour, 25 mM Tris pH 8, MS analysis
Method: Trastuzumab (obtained from Epirus biopharma (Utrecht, The Netherlands); 14 mg/mL) in 25 mM Tris buffer pH 8, was trimmed using a concentration of either 0.1 or 1 w/w % EndoSH. The reactions, 350 μg trastuzumab (25 μL) and the appropriate amount of EndoSH, were stirred at 37° C. and analyzed by MS analysis over time, 1 to 3 hours. Samples were subjected to Fabricator treatment prior to analysis.

[3] = system: Trastuzumab having high-mannose glycans; assay: Trimming of high-mannose trastuzumab glycans by EndoSH; format: biochemical; settings: 1 w/w % EndoSH, 37° C., after 3 hours, 25 mM Tris pH 8, MS analysis
Method: Trastuzumab having high-mannose glycans (obtained via transient expression in CHO K1 cells in the presence of kifunensine performed by Evitria (Zurich, Switzerland)) (14 mg/mL) in 25 mM Tris buffer pH 8, was trimmed using a concentration of either 0.1 or 1 w/w % EndoSH. The reactions, 350 μg high-mannose trastuzumab (25 μL) and the appropriate amount of EndoSH, were stirred at 37° C. and analyzed by MS analysis over time, 1-3 hours. Samples were subjected to Fabricator treatment prior to analysis.

Adcetris: positive control; DAR4 ADC with antibody brentuximab and payload MMAE [reference compound]
MTD [1]: 15 mg/kg | MTD (reported) [2]: 18 mg/kg

B1: EndoSH (protein)
chain: MPSIDSLHYLSENSKKEFKEELSKAGQESQKVKEILAKAQQADKQAQELAKMKIPEKIPMKPLHGPLYGGYFRTWHDKTSDPTEKDKVNSMGELPKEVDLAFIFHDWTKDYSLFWKELATKHVPKLNKQGTRVIRTIPWRFLAGGDNSGIAEDTSKYPNTPEGNKALAKAIVDEYVYKYNLDGLDVDVEHDSIPKVDKKEDTAGVERSIQVFEEIGKLIGPKGVDKSRLFIMDSTYMADKNPLIERGAPYINLLLVQVYGSQGEKGGWEPVSNRPEKTMEERWQGYSKYIRPEQYMIGFSFYEENAQEGNLWYDINSRKDEDKANGINTDITGTRAERYARWQPKTGGVKGGIFSYAIDRDGVAHQPKKYAKQKEFKDATDNIFHSDYSVSKALKTVMLKDKSYDLIDEKDFPDKALREAVMAQVGTRKGDLERFNGTLRLDNPAIQSLEGLNKFKKLAQLDLIGLSRITKLDRSVLPANMKPGKDTLETVLETYKKDNKEEPATIPPVSLKVSGLTGLKELDLSGFDRETLAGLDAATLTSLEKVDISGNKLDLAPGTENRQIFDTMLSTISNHVGSNEQTVKFDKQKPTGHYPDTYGKTSLRLPVANEKVDLQSQLLFGTVTNQGTLINSEADYKAYQNHKIAGRSFVDSNYHYNNFKVSYENYTVKVTDSTLGTTTDKTLATDKEETYKVDFFSPADKTKAVHTAKVIVGDEKTMMVNLAEGATVIGGSADPVNARKVFDGQLGSETDNISLGWDSKQSIIFKLKEDGLIKHWRFFNDSARNPETTNKPIQEASLQIFNIKDYNLDNLLENPNKFDDEKYWITVDTYSAQGERATAFSNTLNNITSKYWRVVFDTKGDRYSSPVVPELQILGYPLPNADTIMKTVTTAKELSQQKDKFSQKMLDELKIKEMALETSLNSKIFDVTAINANAGVLKDCIEKRQLLKKGGGGSGGGGSGGGGSHHHHHHEFGGGGSGGGGSGGGGSAPAPVKQGPTSVAYVEVNNNSMLNVGKYTLADGGGNAFDVAVIFAANINYDTGTKTAYLHFNENVQRVLDNAVTQIRPLQQQGIKVLLSVLGNHQGAGFANFPSQQAASAFAKQLSDAVAKYGLDGVDFDDEYAEYGNNGTAQPNDSSFVHLVTALRANMPDKIISLYNIGPAASRLSYGGVDVSDKFDYAWNPYYGTWQVPGIALPKAQLSPAAVEIGRTSRSTVADLARRTVDEGYGVYLTYNLDGGDRTADVSAFTRELYGSEAVRTP
modifications: fusion protein EndoSH
conversion to the trimmed product (core GlcNAc) (Trastuzumab): Full conversions | conversion to the trimmed product (core GlcNAc) [3]: Full conversions
